Source: patent US20250197448A1 (published 2025)
Starred links: 1 amine or outer side, 2 acyl side, 3 side chain; linkers in the order of their positions; H or OH if unused. Positions of bridges follow the written chain, without caps; N, C: chain ends. Non-standard residues stand in square brackets, D forms with d. No end group written: not given here. O2beY = O-(2-bromoethyl)-tyrosine (p-2beF), reacts with Cys to form a thioether, O=C([C@H](Cc1ccc(OCCBr)cc1)N[*:1])[*:2]; pCaaF = p-(2-chloroacetamido)-phenylalanine, O=C(CCl)Nc1ccc(C[C@H](N[*:1])C(=O)[*:2])cc1

Tests used:
[1] = molecular target: T1, PD-L1 (Programmed Death-Ligand 1), recombinant, His-tagged (human, UniProt Q9NZQ7 18-134); assay: in vitro PD-L1 binding assay
T1 chain: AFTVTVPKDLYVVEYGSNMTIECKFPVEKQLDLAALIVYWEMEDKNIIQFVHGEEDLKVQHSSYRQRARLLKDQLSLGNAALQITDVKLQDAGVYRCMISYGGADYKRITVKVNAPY

[2] = molecular target: T1, PD-L1 (Programmed Death-Ligand 1), …; assay: in vitro PD-L1 binding assay
[3] = molecular target: Sonic Hedgehog (Shh) (human, UniProt Q15465 24-197); assay: immobilized Shh binding assay; FIG. 13C
[4] = molecular target: Indian Hedgehog (Ihh) (human, UniProt Q14623 28-202); assay: immobilized Ihh binding assay; FIG. 13C
[5] = molecular target: Desert Hedgehog (Dhh) (human, UniProt O43323 23-198); assay: immobilized Dhh binding assay; FIG. 13C
[6] = molecular target: cCLP002(pCmF); assay: in vitro PD-L1 binding assay
[7] = molecular target: cCLP002(pCaaF); assay: in vitro PD-L1 binding assay
[8] = molecular target: cRK10(pCmF); assay: in vitro PD-L1 binding assay
[9] = molecular target: T1, PD-L1 (Programmed Death-Ligand 1), …; assay: in vitro PD-L1 binding assay; FIG. 15A

Indian Hedgehog (Ihh), sequence (Q14623 28-202): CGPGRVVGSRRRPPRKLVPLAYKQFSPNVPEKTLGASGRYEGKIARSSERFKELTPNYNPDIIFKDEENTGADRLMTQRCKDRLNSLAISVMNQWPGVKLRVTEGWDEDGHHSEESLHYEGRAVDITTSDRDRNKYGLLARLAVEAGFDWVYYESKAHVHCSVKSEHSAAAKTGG

DYKDDDDKGSGSTYLCGAISLA[pCaaF]KAQIKESLGSGSGS-{Fc-H6} (Fc fusion, thioether 16-23) [FLAG-cRK10-(GS)3-Tras-Fc-His]
Kd [1]: 88 nM

DYKDDDDKGSGSWHFS[pCaaF]NWRWLPCQQQQQQ (Fc fusion, thioether 17-24 (inferred); not fully specified (C-terminus)) [cCLP003 (pCaaF)-Tras-Fc]
Kd [2]: 238 nM

DYKDDDDKGSGSTYLCGAISLA[pCaaF]KAQIKESLEAAAK-{Fc-H6} (Fc fusion, thioether 16-23) [FLAG-cRK10-EAAAK-Tras-Fc-His]
Kd [1]: 88 nM

DYKDDDDKGSGSTYLCGAISLA[pCaaF]KAQIKESLPAPAP-{Fc-H6} (Fc fusion, thioether 16-23) [FLAG-cRK10-PAPAP-Tras-Fc-His]
Kd [1]: 90 nM

DYKDDDDKGSGSTLSW[O2beY]EAMDMCTSSQQQQQQ-{Fc-H6} (Fc fusion, thioether 17-23; also: dimeric through the Fc) [L2-m5-Tras-Fc]
Kd [3]: 8 nM | Kd [4]: 8 nM | Kd [5]: 9 nM

B1: PD-L1 (ligand)
chain: AFTVTVPKDLYVVEYGSNMTIECKFPVEKQLDLAALIVYWEMEDKNIIQFVHGEEDLKVQHSSYRQRARLLKDQLSLGNAALQITDVKLQDAGVYRCMISYGGADYKRITVKVNAPY
Kd [6]: > 15000 nM | Kd [7]: 87000 nM | Kd [8]: > 100000 nM

TYLCGAISLA[pCaaF]KAQIKESL (thioether 4-11) [cyclic peptide cRK10 (pCaaF)]
Kd [9]: 12000 nM
